Target: ACE-2 receptor on the surface of Vero E6 cells (African green monkey (endogenous in Vero E6))
Assay: flow cytometry on cells; about 10^6 Vero-E6 cells blocked with FACS buffer and 5% normal mouse serum, incubated with RBD (8 ug/mL in the methods; different concentrations in the results) 2 h at 37 C; detected with rabbit monoclonal anti-S1 and Alexa Fluor 488 anti-rabbit IgG; percent of positive cells

Substance	percent of cells bound [%]
Recombinant SARS-CoV-2 Spike RBD (Pro330-Ser530), purified (from UniProt P0DTC2 330-530) (domain or fragment)	60
commercially available recombinant RBD expressed in insect cells (Cat No. Z03479, GenScript) (from UniProt P0DTC2) (domain or fragment)	78

Source: PMC9397949
